Data: PMC12227774

Experiments:
YBX1 CSD = YBX1 CSD (human, UniProt P67809 48-159); experiment: BLI
YBX3 CSD = YBX3 CSD (human, UniProt P16989 82-174); experiment: BLI
Chain of YBX3 CSD (P16989 82-174): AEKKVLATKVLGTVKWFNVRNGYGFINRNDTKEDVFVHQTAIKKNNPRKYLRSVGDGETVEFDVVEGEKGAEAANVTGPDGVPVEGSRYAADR

Chain of YBX1 CSD (P67809 48-159): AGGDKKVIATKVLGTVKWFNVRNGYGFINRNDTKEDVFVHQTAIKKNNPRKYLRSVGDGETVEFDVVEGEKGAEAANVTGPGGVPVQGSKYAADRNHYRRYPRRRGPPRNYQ

Binder | Kd (YBX1 CSD) | Kd (YBX3 CSD)
GGAGGCCACCUCUCCAAGGGCUUCU (structured_RNA, none) [FURIN-25nt] | 346 nM | 87.5 nM
GGAGGCCACCUCUCCAAGGGCUUCU (structured_RNA, m5C at position 12 (NSUN6-methylated)) [FURIN-25nt-m5C] | 214 nM | 45 nM
